# Data published in the domain aggregation screens of Martell et al. (2025).
# Assay: soluble fraction after stress (log2 fold change); higher = more stays soluble; pooled small domains, quantitative proteomics
# Settings: stress: 75 degC
# 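Also: 20 min heating vs room temperature control held 20 min.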
row,Sequence,soluble fraction (log2)
1,HMESVQWSVFPSAKYVTIISFDPTTSGGSATAKFKVSDEARSKGFRFRIEAAIGEGIMRSEMYVIEE,0.215
2,HMKEIKRLVELSPGRYFIEGATNIRVFGINGSLLLDTKGETVDLSDLAKGVYLLKTDGVTYKVL,-0.506
3,HMTVSKLKVINYTIRNGDSLWTISRKFNVTVDKVKEWNGLSDRTLLQPGQKLTLYVDPTIQISH,-1.82
4,HMEHPNNTELTQKLELGTELMQYGDYNYALKVFNNVIDSDPEWSEAWNKRATVYFLMSQFTDSLSDIDRV,0.331
5,HMYHNKFADLAGFIAFNEKNEEIFTFGKYKGQNVKEVFQRDIGYYGWLQNADFPLYTKKVFTAIQLRSR,-2.44
6,HMTDEYYSYIGKTGTTITVLRPAGIAEVEGERLNVVSEGEFIRKGAAILVKEVEGARILVEEVN,-0.58
7,HMEIPRYRLIGADGGRMVDLGEGQGAIPPVDVKRGMIDMPGLGKGYYTADGKSAVITNADGSKTRVL,-0.25
8,HMIRQETYLLVRKAVGALPVQMRKIIELAMQGKKNAEIAAQLSISEGTVHTLKKTAYKKLRDRLQE,-3.12
9,HMRDKSITFSEFVKLLDEGQIQKVTLTGNEILGTQKSGDKFRTYAPPQYEGLGNKLVERSVEVTAKE,0.378
10,HMEIVQVIAQNIQDLLDKHKISVSELSGYLGISRQTLTNYLKTTSTIDSVQLVKIADFFNIPAEYLLKDH,-1.5
11,HMNILKAPMPGLILDVIVKESDLVKKGDPVIILEAMKMENILSSPVDGIVKEIKVNPQQTVEKNNTLIKFE,-0.0843
12,HMDKVSYALGLGIGRQLTDMGAKDLNIDDFAQAIKDVLAGGEVKLSDAEAQTIVRNFFDEQEKKQRA,-0.029
13,HMTAVAAEQQAQDAYRQTAANNLNEIQAKYKLPDSESDDFFTFAYERGFTQEDFIDIGLVDKIMGDYV,0.19
14,HMTITPEVIVNHFKNLDLFFTKNGNYYEFKKKGTENILFKYGIYKQKPNIFVKIQRYPISSLSDLERIPI,-1.53
15,HMVAESGLPPAFRSTWRHIMQTRGAQLDVLAMRTGTDAASLQKQLHAMELGGWVRRMPGGWYVPLK,-1.78
16,HMKFPIITAKQDSDGKFYWAQTTDKGKTYTFILDGDGKKFPIGGTMPDVKINENGYWSVNGSSTGVLANDL,0.368
17,HMTGSAETRGITLTDEQVTVWAKDGSWANYVYRATDGNWYDGSGRLYYENGGGEWTQAATGEQGS,0.126
18,HMFDTVFIVRKTSDKPLDGLRTYLNSIGDSLVIGEDDEAFKVHVHTNHPGKVLEEAITYGALQTVKIENMR,-1.07
19,HMRQNPESFLNHKVKKNESLESLTKKYELTENEIIFYNPLIQKIGLKKRMILKIPIYNNQNLVTKSVD,-0.15
20,HMSSIDLTARSGRAALKHRLSLLGYEFSKIELETLYVRFIELADEKKLLHDEDLIELVKEKN,-3.12
21,HMYTGSEGMAGLEGRAVTEVGPEAGTVLVKGEYWQARSDEPIATDRKIRVIRLEGLRLRVAEIHPEG,-0.45
22,HMGVGVPVTLLLEKLGEDTLSAQQIMERLGLKSRASFRKVYLVPALEQKLIEMEFPDKPNSSKQRYRR,-0.859
23,HMRSSNEAVSQRRDKILDYISATGRTSTEIVAKEFGVSVMTARRDLLYLMEKRLISKSSSGLFKVDNN,-3.09
24,HMSDPVKQVAMRILDLREISDYTVDKMAEVLNVPVEEYRKYESGEVDMPISFLVKIGEVFHVDMTELLTG,-1.55
25,HMDVLSQYGSRGEEVGKIQTRLKSWGYFSGEVTGYYGSQTTEAVKRFQQKHGLSATGVADRKTLELIGIS,-0.307
26,HMGGAYATVKLSSSSSQLNVRASASTASRVVARLSHGFRVEVLGVSGDWVKIRALGVEGYVARAYLALEGE,-3.07

row,Sequence,soluble fraction (log2)
1,HMKEQYTELDWDKVQVNDKVMIKDLNQQVTILSLPDKNNALYIQMGMIKTKVKKEKLAVYNPQLA,-2
2,HMGGEKLPAPVAGTLLRYSVAEGARVSEGQTVIILESMKMELEINTPKAGVIHFLAAVGAQVAEGDTLAEI,-3.46
3,HMIDEPENLIQEDKMVNIIYDLALLEGVKTFNSSNFQSVKSNDFVYKKYKIDSLQFAKSTQFYASDINR,0.0618
4,HMENYTYKYATSANVNIREEPNTDSTILGKTLLNTEFQVVEDVDGWSKITTEAGYAYIKSEYLSDTE,0.502
5,HMENMETSDIVARYSNMPGGIIEAFHEIVDRHGFLSQEAIIEAARGFGISVAEAYGVATFYSMFS,-0.342
6,HMRLLGEPLAGRLKKDVPVVTGRSTESKAIAQFFELRWSHLPDPEARTISVASGRIDFMDVGATRFSLR,0.0725
7,HMQNKYIIKQGNSGELVEVLQELLNLKQDGVFGPQTKKAVIAFQQKHKLVADGIVGPMSWRKLNFNPEELF,-2.36
8,HMTSLQDLLEELRVIRETLTGSQVLSDMQLFSQLRNLGDIKAALTRMQDNPAAARMVGEVDKLLETMFAS,-1.97
9,HMGVGERIKARRKEIGLSAEQVAKELGVSPATVYRYESNDIMNMRIDKLEPIAKALHTTPAYLMGWE,-0.0856
10,HMSEVPAAVLVTGGSINLREAPSTDATIIDVAQVGEKMTVLAEKNSWYQVSRGGRNVWVASWVVDPLT,-0.066
11,HMVVVMNADAEADEIKRVKWNLEQMLFRTQVIYGVKRIVIGAIGDQREVDLSEIEQMPKVDKIVRISK,-2.24
12,HMGEYGVLWYLLTKKEAVSAGELKEKLHVVPGRMTDILTALEKKGLIIRQKNKTDKRVVDVVLTKEGEKEA,-0.731
13,HMVTPAQQARDTLLGALVGLARATTSEPKTDDTDVVLNAGLRLAAQPDAPEERLQRMLAIVQTEKHRV,0.138
14,HMHRTMFYLDVDLAEGQSVKMAVHEDDDPGELAARFADEHQLKSRAMEKLRSVIEENVRLHRRNQ,-0.57
15,HMSRYQDIANDIEKDIIEKKYTRKLPEQFELAQKYQTSRVTIVHALKILQNKKLIRTVKGHGTFITS,-1.84
16,HMFPTLNEDEQTIVSALQKINDQPINTLSIHTALPIPRLTSLLFQLEIKGVIKQLAGGTYHVL,-2.84
17,HMSLRVIEIFGTPQQMSARISLMDGSVTDVKVGQSIPGTSYKVASITGNGVWIQNGTAVSYTHL,-2.41
18,HMKKAITMGDIITVKELSEKIGIQVAEIIKKLMGLGILATINKELDYDTANVIASEFHIELERK,0.117
19,HMRVTEIDYGAFMKMIEEKNIGEVKVEDYEIVFTDKDNKNIYKTGIMDDPDLTQRLYNSGAVFA,0.0318
20,HMIINFDAIKLTTELNKYKRHKAIPNTFFDGTYTILDVRELYNDLTPKAQKIADELIEHYNVDVK,-1.73
21,HMREVEAPRDLLAALGERPGALDAWKALSFTHQREYVEAIEDARKPETRERRIANAVKMVAERS,0.386
22,HMANPMFAEIKKVQKQLNEMGYQAGPADGLWGNKTENAVKLLLSDNNLKWDGTFDQNEIKIIEEIFLSND,-0.241
23,HMNPDTERIREFVAVSLKNRKVATSGEIQNMIVKQFKNFKLKSHGYSNMKSFLSSIDKIQLNSNGKYSLK,-1.89
24,HMDPSWVPVFNNLRDAILSHQLLPGTRLAEDELSNIYGLGRTVIRSALGALTHEGLLTHIPNRGVHVAKP,-1.16
25,HMPSLGGLLALLKRNRKPDAMEALDRLISKEDRPETAEALENIREKVRNMQMREAEGLLLALMEP,-0.509
26,HMEGTEVTTEPPGAQIEFDGKQFGPTPTRVPGLAAGKQFRITLAGYQEAKPKLKNNPKEGEPLSFTLTAI,0.338

row,Sequence,soluble fraction (log2)
1,HMNEPSSYGYAISVALDRNGLGTVKGGTLYPLLARLEQAAHVETRWEAGDGGPGRKYYTITDSGRS,-0.214
2,HMGFDTSMNKYTIDDLLKLLELGSNPSQAEIVNKITNFNTIFVDNSGVIQFLNNIQDKLLDNFK,-0.734
3,HMELEFLTEKQKEALILAVNRGYYDVDSEVTLKRLADELGIARSTYGEHLKRAESEALKMVVSDLLRD,-0.556
4,HMREISSDELHSLFSADQRGDLVINETTRLSIEKLYALHTPEEREAKVNELSGVLPSEAHRQLVHFLDYFD,-1.42
5,HMLSTRERMSSLMAQLQVQQFMPFHRLFTISEGRMGVIVTFLAMMELVKENLIKLIQAQEYGPIHVSLG,0.467
6,HMQYFDIETEIQKFIKSENNLSDFDKETLQSFLYQLSKGSPEENTAKKVVDILNKFLPLTTAIINMIKALT,0.0503
7,HMSTYTETETAYLKAYSAAGVDGKISDSERGILNMTAEALGITVERTTELEAMFNLTVEEEA,-0.0838
8,HMPVSLHEQIQQARIRAEQNVEGISLLLQVNPKYYEQIEAGDVIPDQDLLKRISSLFGWNYHEMLHREKSS,-0.781
9,HMKKEETEAEELEEKFTSAQIKQAYGILNDPRYKQGNYSGAVNVINKIAPGLADHPDVKNALKRANEEL,0.809
10,HMVKIIHYEVYANRGDGWKLVDQFSADQRQEAVNLAKEIETEDQVAVKIIREIFDVQDNTYQESVEYIG,-1.59
11,HMSPRADRSVNLDVGETVQIDDWGADGTAQIRYRGAPWTAVLRPGHTPHPGPHRVIELVGSRLLVEP,0.0352
12,HMASMEDILAEAKTKFQEGDLFKSVNEGIQGTHKLTLPLRIKESRIVDASGAAVYREGIWATVDK,0.166
13,HMHDYNTIVGVIEMRDKNIPLTSIRQRYGIGYSGIDLILTRYKDSGLTLKEFLALDPSQAEELIYPPK,-0.961
14,HMGFAEFWLAYPKKVGKGEAERKWKTLKPDAGAVLSAVKRQSASEQWRKDGGRYIPNPATWLHQRRWE,0.0452
15,HMGPKPVDMSPIPEGQRNQVLHDWMYGRAANHPENWGQIRSDALERGLKSGLKADEIHAITGSVARALGLE,0.0169
16,HMKLTKPQEVFIQELLKGSSQYEAYLKAYPSKKTWKRNSIDTEASKLFKNAKIKQRYEELLYNIREE,-0.695
17,HMDTFYKNLSKKIKTIREKLSFSQEALAKELGISRVAISQIENGDRKISAEEIAKLSRVFNVPTDILLN,-0.281
18,HMIPRGFSRYYILELLQKKPHTGKEIIDNAIKESGGRWNPSPGLIYPLLGRLLDENLIEETNDGKYK,-2.24
19,HMRQHHMIISTKLGTPKEELAKLVSGFEDQGLRVSVITGTDYTVIGLVGDTTHLDEKRIRANPYVDNVQRV,-0.813
20,HMRISMRDQVYEIIKNRILSREYSLGEPINIVHLSKELGISNTPIREALSQLETERLITINSNQKYHVT,-0.0513
21,HMNHHTEQQLKALSNKVKDHRMRMRLLAVAHFKAGKNKADVARTLNVSRRMVNEWVANYFKGGVSALES,-3.43
22,HMDAEETLGARLRRLRQARGLSLAGLAQAAGLSKPSIWAWENGTTAPRRTSLLALARALDVPEQQLTGV,-0.715
23,HMPSLSREREAAILEMIERRPSTAEDVASGLGLAVNEVIKLLDGTALRGSVETFQSGEEIYYTRKR,0.472
24,HMTSDYEPSEKDEKAVIGIAFLRNTDVYDVDIDKAEAIKALKANNDIYQKFVKFFPFVKLPSLYDDFQ,0.251
